# Assay results: article PMC3494461
# Substrate: CC(=O)C(=O)O
# Assay: purified protein
# Assay type: biochemical, Escherichia coli
# Details: 37 °C, pyruvate (1–90 mM) as donor and acceptor, no D-GAP
protein,measurement,value
DXP synthase (Escherichia coli K-12) (protein) SFDIAKYPTLALVDSTQELRLLPKESLPKLCDELRRYLLDSVSRSSGHFASGLGTVELTVALHYVYNTPFDQLIWDVGHQAYPHKILTGRRDKIGTIRQKGGLHPFPWRGESEYDVLSVGHSSTSISAGIGIAVAAEKEGKNRRTVCVIGDGAITAGMAFEAMNHAGDIRPDMLVILNDNEMSISENVGALNNHLAQLLSGKLYSSLREGGKKVFSGVPPIKELLKRTEEHIKGMVVPGTLFEELGFNYIGPVDGHDVLGLITTLKNMRDLKGPQFLHIMTKKGRGYEPAEKDPITFHAVPKFDPSSGCLPKSSGGLPSYSKIFGDWLCETAAKDNKLMAITPAMREGSGMVEFSRKFPDRYFDVAIAEQHAVTFAAGLAIGGYKPIVAIYSTFLQRAYDQVLHDVAIQKLPVLFAIDRAGIVGADGQTHQGAFDLSYLRCIPEMVIMTPSDENECRQMLYTGYHYNDGPSAVRYPRGNAVGVELTPLEKLPIGKGIVKRRGEKLAILNFGTLMPEAAKVAESLNATLVDMRFVKPLDEALILEMAASHEALVTVEENAIMGGAGSGVNEVLMAHRKPVPVLNIGLPDFFIPQGTQEEMRAELGLDAAGMEAKIKAWLA,K0.5,51.0 ± 1.7 mM
